Legend:
[1] = molecular target: TmTsaD;TmTsaB dimer-interface mutant (Thermotoga maritima;Thermotoga maritima, UniProt Q9WXZ2;Q9WZX7 1-327;1-206, |E20A;D21A;L22A;E24A;S26A;Y27A;T28A;E30A;K31A); assay: EMSA; TsaDB dimer; EMSA: 1 uM 6-FAM-tRNA, 0-100 uM protein, 2% agarose, 20 mM Tris-HCl/50 mM glycine pH 8.5 running buffer (loading buffer for native gels 20 mM Tris-HCl pH 7.5, 300 mM NaCl, 25% glycerol); MST: 10 nM tRNA, 20 mM PBS pH 7.5, 300 mM NaCl, 0.05% Tween 20, 25 C; conditions: protein: recombinant;recombinant; tags: ;; copies: 1;1; label: 5' 6-FAM; tRNA cloverleaf
TmTsaD;TmTsaB dimer-interface mutant, sequence (Q9WXZ2 whole entry, stated change not applied, chain 1 of 2): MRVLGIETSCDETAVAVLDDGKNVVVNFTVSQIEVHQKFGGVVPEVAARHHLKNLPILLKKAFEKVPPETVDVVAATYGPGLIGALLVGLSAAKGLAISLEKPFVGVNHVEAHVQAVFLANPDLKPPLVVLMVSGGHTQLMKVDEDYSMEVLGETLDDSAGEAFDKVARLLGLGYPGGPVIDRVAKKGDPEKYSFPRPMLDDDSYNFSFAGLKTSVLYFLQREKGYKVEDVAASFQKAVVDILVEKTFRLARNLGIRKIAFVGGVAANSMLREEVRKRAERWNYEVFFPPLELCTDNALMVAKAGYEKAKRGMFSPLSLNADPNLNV
TmTsaD;TmTsaB dimer-interface mutant, sequence (Q9WZX7 whole entry E20A/D21A/L22A/E24A/S26A/Y27A/T28A/E30A/K31A, chain 2 of 2): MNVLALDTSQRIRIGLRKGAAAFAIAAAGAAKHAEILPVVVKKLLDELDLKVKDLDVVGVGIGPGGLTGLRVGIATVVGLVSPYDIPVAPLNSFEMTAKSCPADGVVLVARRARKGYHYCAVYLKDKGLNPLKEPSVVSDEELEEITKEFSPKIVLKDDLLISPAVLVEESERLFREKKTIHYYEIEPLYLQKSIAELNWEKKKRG

[2] = molecular target: TmTsaD;TmTsaB (Thermotoga maritima;Thermotoga maritima, UniProt Q9WXZ2;Q9WZX7 1-327;1-206, |); assay: EMSA; TsaD2B2 tetramer; EMSA: 1 uM 6-FAM-tRNA, 0-100 uM protein, 2% agarose, 20 mM Tris-HCl/50 mM glycine pH 8.5 running buffer (loading buffer for native gels 20 mM Tris-HCl pH 7.5, 300 mM NaCl, 25% glycerol); MST: 10 nM tRNA, 20 mM PBS pH 7.5, 300 mM NaCl, 0.05% Tween 20, 25 C; conditions: protein: recombinant;recombinant; tags: ;; chain copies: 2;2; label: 5' 6-FAM; tRNA cloverleaf
TmTsaD;TmTsaB, sequence (Q9WXZ2 whole entry, chain 1 of 2): as the sequence (Q9WXZ2 whole entry, stated change not applied, chain 1 of 2) above
TmTsaD;TmTsaB, sequence (Q9WZX7 whole entry, chain 2 of 2): as the sequence (Q9WZX7 whole entry E20A/D21A/L22A/E24A/S26A/Y27A/T28A/E30A/K31A, chain 2 of 2) above, with A20E, A21D, A22L, A24E, A26S, A27Y, A28T, A30E, A31K counted along it

[3] = molecular target: EcTsaD;EcTsaB (Escherichia coli;Escherichia coli, UniProt P05852;P76256 1-337;1-231, |); assay: EMSA; TsaDB dimer; EMSA: 1 uM 6-FAM-tRNA, 0-100 uM protein, 2% agarose, 20 mM Tris-HCl/50 mM glycine pH 8.5 running buffer (loading buffer for native gels 20 mM Tris-HCl pH 7.5, 300 mM NaCl, 25% glycerol); MST: 10 nM tRNA, 20 mM PBS pH 7.5, 300 mM NaCl, 0.05% Tween 20, 25 C; conditions: protein: recombinant;recombinant; tags: ;; copies: 1;1; tRNA cloverleaf
EcTsaD;EcTsaB, sequence (P05852 whole entry, chain 1 of 2): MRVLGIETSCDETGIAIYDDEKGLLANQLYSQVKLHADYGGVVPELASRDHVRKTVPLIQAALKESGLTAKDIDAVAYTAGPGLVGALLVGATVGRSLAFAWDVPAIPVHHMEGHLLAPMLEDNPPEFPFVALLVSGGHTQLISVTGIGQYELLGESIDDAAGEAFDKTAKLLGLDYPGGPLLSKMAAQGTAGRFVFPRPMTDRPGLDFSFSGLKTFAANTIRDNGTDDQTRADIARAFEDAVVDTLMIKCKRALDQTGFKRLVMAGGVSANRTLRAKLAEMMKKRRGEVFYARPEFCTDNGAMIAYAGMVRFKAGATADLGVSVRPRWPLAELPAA
EcTsaD;EcTsaB, sequence (P76256 whole entry, chain 2 of 2): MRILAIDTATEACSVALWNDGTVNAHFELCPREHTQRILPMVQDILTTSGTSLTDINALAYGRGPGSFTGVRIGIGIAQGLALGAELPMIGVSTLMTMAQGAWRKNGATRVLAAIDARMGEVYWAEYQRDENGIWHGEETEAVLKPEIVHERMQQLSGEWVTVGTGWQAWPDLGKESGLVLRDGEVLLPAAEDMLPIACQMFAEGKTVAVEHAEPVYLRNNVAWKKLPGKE

[4] = molecular target: AaTsaD;AaTsaBmut (Aquifex aeolicus;Aquifex aeolicus, UniProt O66986;O66494 1-335;1-200+=WEKKKRG, |internal_change); assay: EMSA; TsaD2Bmut2 tetramer; EMSA: 1 uM 6-FAM-tRNA, 0-100 uM protein, 2% agarose, 20 mM Tris-HCl/50 mM glycine pH 8.5 running buffer (loading buffer for native gels 20 mM Tris-HCl pH 7.5, 300 mM NaCl, 25% glycerol); MST: 10 nM tRNA, 20 mM PBS pH 7.5, 300 mM NaCl, 0.05% Tween 20, 25 C; conditions: protein: recombinant;recombinant; tags: ;C-terminal 6His; chain copies: 2;2; label: 5' 6-FAM; tRNA cloverleaf
AaTsaD;AaTsaBmut, sequence (O66986 whole entry, stated change not applied, chain 1 of 2): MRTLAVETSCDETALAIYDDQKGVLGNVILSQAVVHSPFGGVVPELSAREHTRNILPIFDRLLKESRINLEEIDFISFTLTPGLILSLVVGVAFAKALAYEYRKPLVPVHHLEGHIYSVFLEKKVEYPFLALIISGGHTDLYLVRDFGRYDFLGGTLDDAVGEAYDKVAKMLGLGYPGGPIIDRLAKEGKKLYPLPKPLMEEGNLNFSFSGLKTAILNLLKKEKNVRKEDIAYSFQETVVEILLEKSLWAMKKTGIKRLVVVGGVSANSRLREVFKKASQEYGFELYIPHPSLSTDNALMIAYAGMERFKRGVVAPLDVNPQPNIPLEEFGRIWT
AaTsaD;AaTsaBmut, sequence (chain, as listed by the source |, chain 2 of 2): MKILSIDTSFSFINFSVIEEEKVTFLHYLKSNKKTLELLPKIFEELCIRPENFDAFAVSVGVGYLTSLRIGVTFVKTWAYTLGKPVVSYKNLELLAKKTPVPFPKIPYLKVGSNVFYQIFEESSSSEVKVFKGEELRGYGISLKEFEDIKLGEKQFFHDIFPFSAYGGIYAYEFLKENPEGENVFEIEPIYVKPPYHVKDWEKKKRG

[5] = molecular target: AaTsaD del34-38;AaTsaB (Aquifex aeolicus;Aquifex aeolicus, UniProt O66986;O66494 1-335;1-200, del34-38|); assay: EMSA; tighter than TsaD2B2; EMSA: 1 uM 6-FAM-tRNA, 0-100 uM protein, 2% agarose, 20 mM Tris-HCl/50 mM glycine pH 8.5 running buffer (loading buffer for native gels 20 mM Tris-HCl pH 7.5, 300 mM NaCl, 25% glycerol); MST: 10 nM tRNA, 20 mM PBS pH 7.5, 300 mM NaCl, 0.05% Tween 20, 25 C; conditions: protein: recombinant;recombinant; tags: ;C-terminal 6His; chain copies: 2;2; label: 5' 6-FAM; tRNA cloverleaf
AaTsaD del34-38;AaTsaB, sequence (O66986 other isoform, or with tags, fused parts or gaps del34-38|, chain 1 of 2): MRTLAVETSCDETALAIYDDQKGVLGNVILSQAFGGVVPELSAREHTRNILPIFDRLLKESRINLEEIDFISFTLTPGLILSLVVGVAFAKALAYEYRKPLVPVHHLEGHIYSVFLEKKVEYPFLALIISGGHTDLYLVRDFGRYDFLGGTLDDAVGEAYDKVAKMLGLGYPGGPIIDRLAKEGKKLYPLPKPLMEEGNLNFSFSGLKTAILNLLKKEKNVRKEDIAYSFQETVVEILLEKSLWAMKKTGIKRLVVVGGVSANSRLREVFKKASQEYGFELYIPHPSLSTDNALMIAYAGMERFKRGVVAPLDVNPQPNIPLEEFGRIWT
AaTsaD del34-38;AaTsaB, sequence (chain, as listed by the source del34-38|, chain 2 of 2): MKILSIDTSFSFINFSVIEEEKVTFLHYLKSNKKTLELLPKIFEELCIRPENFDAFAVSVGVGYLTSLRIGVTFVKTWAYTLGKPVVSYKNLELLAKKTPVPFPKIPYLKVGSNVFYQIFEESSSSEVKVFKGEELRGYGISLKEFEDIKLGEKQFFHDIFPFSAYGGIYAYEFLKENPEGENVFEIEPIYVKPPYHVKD

[6] = molecular target: AaTsaD;AaTsaB (Aquifex aeolicus;Aquifex aeolicus, UniProt O66986;O66494 1-335;1-200, |); assay: MST; not saturated at 100 uM; stronger than AaTsaDB; EMSA: 1 uM 6-FAM-tRNA, 0-100 uM protein, 2% agarose, 20 mM Tris-HCl/50 mM glycine pH 8.5 running buffer (loading buffer for native gels 20 mM Tris-HCl pH 7.5, 300 mM NaCl, 25% glycerol); MST: 10 nM tRNA, 20 mM PBS pH 7.5, 300 mM NaCl, 0.05% Tween 20, 25 C; conditions: protein: recombinant;recombinant; tags: ;C-terminal 6His; chain copies: 2;2; label: 5' 6-FAM; tRNA cloverleaf
AaTsaD;AaTsaB, sequence (O66986 whole entry, chain 1 of 2): as the sequence (O66986 whole entry, stated change not applied, chain 1 of 2) above
AaTsaD;AaTsaB, sequence (chain, as listed by the source |, chain 2 of 2): as the sequence (chain, as listed by the source del34-38|, chain 2 of 2) above

B1: T. maritima tRNALysUUU (structured_RNA)
RNA: GACCCGGUAGCUCAGCAGGCAGAGCACCUGACUUUUAAUCAGGGGGUCGUGGGUUCGAAUCCCACCCGGGUCACCA
For B1, the Kd [1] was 1720 nM and the Kd [2] was 1200 nM.

B2: E. coli tRNALysUUU (structured_RNA)
RNA: GGGUCGUUAGCUCAGUUGGUAGAGCAGUUGACUUUUAAUCAAUUGGUCGCAGGUUCGAAUCCUGCACGACCCACCA
B2: no binding [3].

B3: A. aeolicus tRNALysUUU (structured_RNA)
RNA: GAGCCGGUAGCUCAGUUGGUAGAGCAACGGCCUUUUAAGCCGUGGGUCGCGGGUUCGAGUCCCGCCCGGCUCACCA
B3 was tested, and the Kd [4] was roughly 1160 nM, the binding result [5] was “binds” and the binding result [6] was “binds”.
